Source: patent US20220267460A1 (MOMENTA PHARMACEUTICALS, published 2022)

T1: human FcγRIIa-H variant (Histidine at amino acid 131) (human, UniProt P12318 34-317)
T1 sequence (looked up): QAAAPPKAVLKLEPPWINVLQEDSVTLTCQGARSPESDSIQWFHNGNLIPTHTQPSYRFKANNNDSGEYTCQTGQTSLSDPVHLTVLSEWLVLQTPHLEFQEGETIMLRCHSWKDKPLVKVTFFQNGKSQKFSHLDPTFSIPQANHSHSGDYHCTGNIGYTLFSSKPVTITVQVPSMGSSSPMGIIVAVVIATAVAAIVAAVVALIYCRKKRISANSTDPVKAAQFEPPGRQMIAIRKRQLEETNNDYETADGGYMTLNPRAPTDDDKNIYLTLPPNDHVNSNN


Legend:
Assay in all cases: cell-based or functional assay
FcγRIIIa [1] = molecular target: T2, FcγRIIIa (UniProt P08637 17-254)
T2 sequence (P08637 17-254 F176V limits assumed): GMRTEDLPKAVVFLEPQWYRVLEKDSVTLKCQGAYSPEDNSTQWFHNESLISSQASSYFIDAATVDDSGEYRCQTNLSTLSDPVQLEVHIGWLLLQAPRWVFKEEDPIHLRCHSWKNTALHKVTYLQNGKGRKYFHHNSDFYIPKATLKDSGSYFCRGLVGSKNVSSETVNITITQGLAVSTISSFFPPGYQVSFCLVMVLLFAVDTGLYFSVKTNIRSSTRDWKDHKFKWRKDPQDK

[2] = molecular target: T1, human FcγRIIa-H variant (Histidine at …)
[3] = molecular target: T1, human FcγRIIa-H variant (Histidine at …); remark: listed apart in the source
FcγRIIIa [4] = molecular target: T2, FcγRIIIa; remark: listed apart in the source

| Binder | EC50 (nM) Mean, FcγRIIIa signaling in ADCC reporter assay (Raji target cells, Jurkat/FcγRIIIa effector cells, luciferase) (FcγRIIIa [1]) | EC50 (nM) Mean, FcγRIIa signaling in ADCP reporter assay (Raji target cells, Jurkat/FcγRIIa-H effector cells, luciferase) [2] | EC50 (nM) Mean, FcγRIIa signaling in ADCP reporter assay (HEK-PD-L1 target cells, Jurkat/FcγRIIa-H effector cells, luciferase) [3] | EC50 (nM) Mean, FcγRIIIa signaling in ADCC reporter assay (HEK-PD-L1 target cells, Jurkat/FcγRIIIa effector cells, luciferase) (FcγRIIIa [4]) |
| --- | --- | --- | --- | --- |
| Fc-antigen binding domain construct 43 (CD20) (antibody, human IgG1, kappa) heavy 1: QVQLVQSGAEVKKPGSSVKVSCKASGYAFSYSWINWVRQAPGQGLEWMGRIFPGDGDTDYNGKFKGRVTITADKSTSTAYMELSSLRSEDTAVYYCARNVFDGYWLVYWGQGTLVTVSSASTKGPSVFPLAPSSKSTSGGTAALGCLVKDYFPEPVTVSWNSGALTSGVHTFPAVLQSSGLYSLSSVVTVPSSSLGTQTYICNVNHKPSNTKVDKKVEPKSCDKTHTCPPCPAPELLGGPSVFLFPPKPKDTLMISRTPEVTCVVVDVSHEDPEVKFNWYVDGVEVHNAKTKPREEQYNSTYRVVSVLTVLHQDWLNGKEYKCKVSNKALPAPIEKTISKAKGQPREPQVYTLPPCRDKLTKNQVSLWCLVKGFYPSDIAVEWESNGQPENNYKTTPPVLDSDGSFFLYSKLTVDKSRWQQGNVFSCSVMHEALHNHYTQKSLSLSPGKGGGGGGGGGGGGGGGGGGGGDKTHTCPPCPAPELLGGPSVFLFPPKPKDTLMISRTPEVTCVVVDVSHEDPEVKFNWYVDGVEVHNAKTKPREEQYNSTYRVVSVLTVLHQDWLNGKEYKCKVSNKALPAPIEKTISKAKGQPREPQVYTLPPSRKELTKNQVSLTCLVKGFYPSDIAVEWESNGQPENNYKTTPPVLKSDGSFFLYSKLTVDKSRWQQGNVFSCSVMHEALHNHYTQKSLSLSPGQ not shown heavy 2: not shown light: DIVMTQTPLSLPVTPGEPASISCRSSKSLLHSNGITYLYWYLQKPGQSPQLLIYQMSNLVSGVPDRFSGSGSGTDFTLKISRVEAEDVGVYYCAQNLELPYTFGGGTKVEIKRTVAAPSVFIFPPSDEQLKSGTASVVCLLNNFYPREAKVQWKVDNALQSGNSQESVTEQDSKDSTYSLSSTLTLSKADYEKHKVYACEVTHQGLSSPVTKSFNRGEC | 0.86 nM | 7.8 nM |  |  |
| Fc-antigen binding domain construct 43 (PD-L1) (antibody, human IgG1, lambda) heavy 1: not shown not shown heavy 2: not shown light: QSALTQPASVSGSPGQSITISCTGTSSDVGGYNYVSWYQQHPGKAPKLMIYDVSNRPSGVSNRFSGSKSGNTASLTISGLQAEDEADYYCSSYTSSSTRVFGTGTKVTVLGQPKANPTVTLFPPSSEELQANKATLVCLISDFYPGAVTVAWKADGSPVKAGVETTKPSKQSNNKYAASSYLSLTPEQWKSHRSYSCQVTHEGSTVEKTVAPTECS |  |  | 0.037 nM | 0.028 nM |

Next, values leading:

| EC50 (nM) Mean, FcγRIIIa signaling in ADCC reporter assay (Raji target cells, Jurkat/FcγRIIIa effector cells, luciferase) (FcγRIIIa [1]) | EC50 (nM) Mean, FcγRIIa signaling in ADCP reporter assay (Raji target cells, Jurkat/FcγRIIa-H effector cells, luciferase) [2] | EC50 (nM) Mean, FcγRIIa signaling in ADCP reporter assay (HEK-PD-L1 target cells, Jurkat/FcγRIIa-H effector cells, luciferase) [3] | EC50 (nM) Mean, FcγRIIIa signaling in ADCC reporter assay (HEK-PD-L1 target cells, Jurkat/FcγRIIIa effector cells, luciferase) (FcγRIIIa [4]) | Binder |
| --- | --- | --- | --- | --- |
| 0.055 nM | 0.17 nM |  |  | Fc-antigen binding domain construct 44 (CD20) (antibody, human IgG1, kappa) heavy 1: QVQLVQSGAEVKKPGSSVKVSCKASGYAFSYSWINWVRQAPGQGLEWMGRIFPGDGDTDYNGKFKGRVTITADKSTSTAYMELSSLRSEDTAVYYCARNVFDGYWLVYWGQGTLVTVSSASTKGPSVFPLAPSSKSTSGGTAALGCLVKDYFPEPVTVSWNSGALTSGVHTFPAVLQSSGLYSLSSVVTVPSSSLGTQTYICNVNHKPSNTKVDKKVEPKSCDKTHTCPPCPAPELLGGPSVFLFPPKPKDTLMISRTPEVTCVVVDVSHEDPEVKFNWYVDGVEVHNAKTKPREEQYNSTYRVVSVLTVLHQDWLNGKEYKCKVSNKALPAPIEKTISKAKGQPREPQVYTLPPCRDKLTKNQVSLWCLVKGFYPSDIAVEWESNGQPENNYKTTPPVLDSDGSFFLYSKLTVDKSRWQQGNVFSCSVMHEALHNHYTQKSLSLSPGKGGGGGGGGGGGGGGGGGGGGDKTHTCPPCPAPELLGGPSVFLFPPKPKDTLMISRTPEVTCVVVDVSHEDPEVKFNWYVDGVEVHNAKTKPREEQYNSTYRVVSVLTVLHQDWLNGKEYKCKVSNKALPAPIEKTISKAKGQPREPQVYTLPPSRKELTKNQVSLTCLVKGFYPSDIAVEWESNGQPENNYKTTPPVLKSDGSFFLYSKLTVDKSRWQQGNVFSCSVMHEALHNHYTQKSLSLSPGQKGGGGGGGGGGGGGGGGGGGGDKTHTCPPCPAPELLGGPSVFLFPPKPKDTLMISRTPEVTCVVVDVSHEDPEVKFNWYVDGVEVHNAKTKPREEQYNSTYRVVSVLTVLHQDWLNGKEYKCKVSNKALPAPIEKTISKAKGQPREPQVYTLPPSRKELTKNQVSLTCLVKGFYPSDIAVEWESNGQPENNYKTTPPVLKSDGSFFLYSKLTVDKSRWQQGNVFSCSVMHEALHNHYTQKSLSLSPGQ not shown heavy 2: not shown light: DIVMTQTPLSLPVTPGEPASISCRSSKSLLHSNGITYLYWYLQKPGQSPQLLIYQMSNLVSGVPDRFSGSGSGTDFTLKISRVEAEDVGVYYCAQNLELPYTFGGGTKVEIKRTVAAPSVFIFPPSDEQLKSGTASVVCLLNNFYPREAKVQWKVDNALQSGNSQESVTEQDSKDSTYSLSSTLTLSKADYEKHKVYACEVTHQGLSSPVTKSFNRGEC |
|  |  | 0.033 nM |  | Fc-antigen binding domain construct 44 (PD-L1) (antibody, human IgG1, lambda) heavy 1: not shown not shown heavy 2: not shown light: QSALTQPASVSGSPGQSITISCTGTSSDVGGYNYVSWYQQHPGKAPKLMIYDVSNRPSGVSNRFSGSKSGNTASLTISGLQAEDEADYYCSSYTSSSTRVFGTGTKVTVLGQPKANPTVTLFPPSSEELQANKATLVCLISDFYPGAVTVAWKADGSPVKAGVETTKPSKQSNNKYAASSYLSLTPEQWKSHRSYSCQVTHEGSTVEKTVAPTECS |
